Measured values reported in the supplement of paper PMC10567573.

B1: TRIM35 (parent)
chain: WEVQVSPTCPVCKDRASPADLRTN

Variants of: B1
Assay: protein stability index of a GFP-peptide fusion (GPS, HEK-293T) (PSI 1-6); higher = more stable
Conditions: c terminus: a fixed tail appended
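Also: lentivirally expressed fusions sorted by FACS into six bins by GFP to DsRed ratio, PSI derived from sequencing read proportions per bin multiplied by bin number.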

Variant | protein stability index
WEVQVSPTCPVCKPRASPADLRTN | 1.9
WEVQVSPTCPVCKQRASPADLRTN | 2.18
WEVQVSPTCPVCKSRASPADLRTN | 2.5
WEVQVSPTCPVCKTRASPADLRTN | 1.83
WEVQVSPTCPVCKVRASPADLRTN | 1.61
WEVQVSPTCPVCKWRASPADLRTN | 2.71
WEVQVSPTCPVCKYRASPADLRTN | 1.62
WEVQVSPTCPVCKDAASPADLRTN | 3.22
WEVQVSPTCPVCKDCASPADLRTN | 2.26
WEVQVSPTCPVCKDEASPADLRTN | 3.43
WEVQVSPTCPVCKDFASPADLRTN | 2.07
WEVQVSPTCPVCKDHASPADLRTN | 2.46
WEVQVSPTCPVCKDIASPADLRTN | 2.48
WEVQVSPTCPVCKDLASPADLRTN | 2.47
WEVQVSPTCPVCKDMASPADLRTN | 2.04
WEVQVSPTCPVCKDNASPADLRTN | 2.48
WEVQVSPTCPVCKDPASPADLRTN | 3.31
WEVQVSPTCPVCKDQASPADLRTN | 2.54
WEVQVSPTCPVCKDSASPADLRTN | 3.07
WEVQVSPTCPVCKDTASPADLRTN | 2.54
WEVQVSPTCPVCKDVASPADLRTN | 2.74
WEVQVSPTCPVCKDWASPADLRTN | 2.53
WEVQVSPTCPVCKDYASPADLRTN | 2.34
WEVQVSPTCPVCKDRCSPADLRTN | 1.41

Variant | protein stability index
WEVQVSPTCPVCKDRDSPADLRTN | 2.26
WEVQVSPTCPVCKDRESPADLRTN | 2.78
WEVQVSPTCPVCKDRFSPADLRTN | 1.91
WEVQVSPTCPVCKDRGSPADLRTN | 2.15
WEVQVSPTCPVCKDRHSPADLRTN | 2.71
WEVQVSPTCPVCKDRISPADLRTN | 1.28
WEVQVSPTCPVCKDRKSPADLRTN | 2.8
WEVQVSPTCPVCKDRLSPADLRTN | 1.82
WEVQVSPTCPVCKDRNSPADLRTN | 1.84
WEVQVSPTCPVCKDRPSPADLRTN | 2.29
WEVQVSPTCPVCKDRQSPADLRTN | 2.96
WEVQVSPTCPVCKDRSSPADLRTN | 2.42
WEVQVSPTCPVCKDRTSPADLRTN | 2.79
WEVQVSPTCPVCKDRVSPADLRTN | 2.49
WEVQVSPTCPVCKDRWSPADLRTN | 1.85
WEVQVSPTCPVCKDRYSPADLRTN | 2.08
WEVQVSPTCPVCKDRAAPADLRTN | 2.48
WEVQVSPTCPVCKDRACPADLRTN | 1.81
WEVQVSPTCPVCKDRADPADLRTN | 3.31
WEVQVSPTCPVCKDRAEPADLRTN | 3.89
WEVQVSPTCPVCKDRAFPADLRTN | 2.19
WEVQVSPTCPVCKDRAHPADLRTN | 2.08
WEVQVSPTCPVCKDRAIPADLRTN | 2.66
WEVQVSPTCPVCKDRALPADLRTN | 2.75

Variant | protein stability index
WEVQVSPTCPVCKDRAMPADLRTN | 2.01
WEVQVSPTCPVCKDRANPADLRTN | 2.51
WEVQVSPTCPVCKDRAPPADLRTN | 2.83
WEVQVSPTCPVCKDRAQPADLRTN | 2.84
WEVQVSPTCPVCKDRATPADLRTN | 2.05
WEVQVSPTCPVCKDRAVPADLRTN | 2.23
WEVQVSPTCPVCKDRAWPADLRTN | 3.4
WEVQVSPTCPVCKDRAYPADLRTN | 4.01
WEVQVSPTCPVCKDRASAADLRTN | 2.04
WEVQVSPTCPVCKDRASDADLRTN | 1.99
WEVQVSPTCPVCKDRASFADLRTN | 1.95
WEVQVSPTCPVCKDRASGADLRTN | 2.51
WEVQVSPTCPVCKDRASHADLRTN | 1.6
WEVQVSPTCPVCKDRASIADLRTN | 2.87
WEVQVSPTCPVCKDRASKADLRTN | 2.52
WEVQVSPTCPVCKDRASMADLRTN | 1.99
WEVQVSPTCPVCKDRASNADLRTN | 2.39
WEVQVSPTCPVCKDRASQADLRTN | 2.13
WEVQVSPTCPVCKDRASRADLRTN | 3.2
WEVQVSPTCPVCKDRASSADLRTN | 2.51
WEVQVSPTCPVCKDRASTADLRTN | 2.57
WEVQVSPTCPVCKDRASVADLRTN | 2.57
WEVQVSPTCPVCKDRASWADLRTN | 1.39
WEVQVSPTCPVCKDRASYADLRTN | 2.15

Variant | protein stability index
WEVQVSPTCPVCKDRASPCDLRTN | 2.31
WEVQVSPTCPVCKDRASPDDLRTN | 3.38
WEVQVSPTCPVCKDRASPEDLRTN | 3.35
WEVQVSPTCPVCKDRASPFDLRTN | 2.99
WEVQVSPTCPVCKDRASPGDLRTN | 2.24
WEVQVSPTCPVCKDRASPHDLRTN | 2.24
WEVQVSPTCPVCKDRASPIDLRTN | 2.05
WEVQVSPTCPVCKDRASPKDLRTN | 2.96
WEVQVSPTCPVCKDRASPLDLRTN | 2.12
WEVQVSPTCPVCKDRASPMDLRTN | 2.42
WEVQVSPTCPVCKDRASPNDLRTN | 1.91
WEVQVSPTCPVCKDRASPPDLRTN | 2.02
WEVQVSPTCPVCKDRASPQDLRTN | 2.31
WEVQVSPTCPVCKDRASPRDLRTN | 1.54
WEVQVSPTCPVCKDRASPSDLRTN | 1.78
WEVQVSPTCPVCKDRASPTDLRTN | 1.75
WEVQVSPTCPVCKDRASPWDLRTN | 2.3
WEVQVSPTCPVCKDRASPYDLRTN | 1.77
WEVQVSPTCPVCKDRASPAALRTN | 2.02
WEVQVSPTCPVCKDRASPACLRTN | 1.91
WEVQVSPTCPVCKDRASPAELRTN | 2.95
WEVQVSPTCPVCKDRASPAGLRTN | 1.85
